B1: MutS protein homolog 5 (Saccharomyces cerevisiae), Q12175 (parent)
chain: MSHEWLISASETMRSIGNGEGLRDKGAVVANNDGEFNEGDTNREEDSSTIFSFDFDEEIVMCIDFSGGKLGCSILDYHTKTLKAFDQDYVVNKTTISSHDLIDDADMSSNDISLLLGLLIMEANPTVCLVPARLEDWIFDYIKTKCDEINCRLELQPIKRFKKWDLLQSLQLRGHDNQTILNDILSNSKFTTTVTLGTVGCILANHEQLGEYNDSTASSNMVTGRLVQNAFEDVIHGIRYIDIRDRMVLDENTISALHIFPTAHKLGHDKMMRNGFFSVFELFNQVSSDYARRILKSWLINPLTNKKRIETRYSIIRTLLDKQNAIIFSDLSQSIKRCPDAFGFINQLRSGKSTLGTWSKVASFLEKGIAIFQLVSSLKLGSDEANILHDIKNKVDISALKECLRKVETVIDFDTSRDTKTLTINTGVDNRLDECRNIYNHLEGILLDVARETQIFLLNTMPQEDCKTTKSLEKLVNAVYIPQLGYLVTISVLMEPLLDGIPNLQWEEIFRSSENIYFKNGRVLELDETYGDIYGAISDFEIEILFSLQEQILRRKTQLTAYNILLSELEILLSFAQVSAERNYAEPQLVEDECILEIINGRHALYETFLDNYIPNSTMIDGGLFSELSWCEQNKGRIIVVTGANASGKSVYLTQNGLIVYLAQIGCFVPAERARIGIADKILTRIRTQETVYKTQSSFLLDSQQMAKSLSLATEKSLILIDEYGKGTDILDGPSLFGSIMLNMSKSEKCPRIIACTHFHELFNENVLTENIKGIKHYCTDILISQKYNLLETAHVGEDHESEGITFLFKVKEGISKQSFGIYCAKVCGLSRDIVERAEELSRMINRGDDVVQQCGNLTEKEMREFQKNQEIVKKFLSWDLDLETTTTSENLRLKLKNFLR
partner: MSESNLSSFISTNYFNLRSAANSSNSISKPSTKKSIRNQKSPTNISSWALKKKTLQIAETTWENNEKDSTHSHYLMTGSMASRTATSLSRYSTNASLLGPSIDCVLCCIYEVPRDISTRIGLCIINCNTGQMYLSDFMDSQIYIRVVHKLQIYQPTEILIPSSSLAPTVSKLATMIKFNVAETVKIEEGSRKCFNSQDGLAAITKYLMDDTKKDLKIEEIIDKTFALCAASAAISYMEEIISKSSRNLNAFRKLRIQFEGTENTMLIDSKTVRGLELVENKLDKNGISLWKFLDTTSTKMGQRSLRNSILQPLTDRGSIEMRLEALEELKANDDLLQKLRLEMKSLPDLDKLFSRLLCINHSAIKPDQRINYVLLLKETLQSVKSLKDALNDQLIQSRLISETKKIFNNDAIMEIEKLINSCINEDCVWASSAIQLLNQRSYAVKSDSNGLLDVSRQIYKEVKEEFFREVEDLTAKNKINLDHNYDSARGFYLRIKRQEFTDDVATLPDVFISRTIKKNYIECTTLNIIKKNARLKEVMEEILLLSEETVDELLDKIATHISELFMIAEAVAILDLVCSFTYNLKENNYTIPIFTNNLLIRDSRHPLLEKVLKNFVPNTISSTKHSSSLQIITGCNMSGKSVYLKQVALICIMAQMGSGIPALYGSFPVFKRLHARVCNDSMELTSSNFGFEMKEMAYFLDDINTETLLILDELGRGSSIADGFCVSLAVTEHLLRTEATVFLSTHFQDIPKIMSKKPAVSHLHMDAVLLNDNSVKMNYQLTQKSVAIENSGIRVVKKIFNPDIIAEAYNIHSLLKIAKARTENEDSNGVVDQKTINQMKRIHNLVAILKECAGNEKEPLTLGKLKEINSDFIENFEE

Variants of: B1
Details: with msh4_yeast MSH4, P40965

Row | Variant | effect of a mutation on the interaction
1 | G643D | with no effect
2 | G821D | with no effect
3 | G648R | with no effect
4 | A644V | with no effect

Source: IntAct's records for PubMed 9374523
